Values quoted from earlier work in article PMC7484323 (Molecular pharmaceutics, 2020).

Tested on: B16/F1 melanoma
Conditions: 2 h post-injection

Substance: hydrazinonicotinamide (HYNIC)-GGNle-CycMSHhex (sidechain bridge or staple) [99mTc(EDDA)-HYNIC-GGNle-CycMSHhex]
- kidney (renal) uptake: 7.52 ± 0.96 %ID/g
- liver uptake: 0.52 ± 0.05 %ID/g
- tumor uptake (B16/F1 melanoma): 14.14 ± 4.90 %ID/g
